Results as given in patent US20140315986.

What was measured:
[1] = target: IL-6 (mature human interleukin-6) (Homo sapiens) (UniProt P05231); test: filter
[2] = target: T1, IL-6 (Macaca fascicularis) (UniProt P79341); test: cell_activity; details: Bn-dU at 7,8,14,15,22,23,27,30; PE-dU at 9; Nap-dU at 12; 2'-OMe at C3,G6,A16,A19,C20,C28; gene reporter assay
T1 sequence: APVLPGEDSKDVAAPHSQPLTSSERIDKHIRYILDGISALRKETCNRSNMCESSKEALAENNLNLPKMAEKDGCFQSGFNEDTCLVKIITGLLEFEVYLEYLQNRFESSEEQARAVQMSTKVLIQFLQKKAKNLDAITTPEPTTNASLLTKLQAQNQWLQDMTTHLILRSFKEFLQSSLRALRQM

[3] = target: IL-6 (mature human interleukin-6) (Homo sapiens) (UniProt P05231); test: cell_activity; details: 2'-OMe at C3,G6,A16,A19,C20,C28, STAT3 gene reporter assay
[4] = target: T1, IL-6 (Macaca fascicularis); test: filter; details: Bn-dU at 7,8,14,15,22,23,27,30; PE-dU at 9; Nap-dU at 12; 2'-OMe at C3,G6,A16,A19,C20,C28

| Sequence | Kd ([1]; all U are Nap-dU) [nM] | also measured |
| --- | --- | --- |
| GGCAGGUUUGGUAUUAACACGUUAAGUCGUGG [2573-20_15] |  | Kd ([1]; all U are Bn-dU): 1 nM |
| UUAUGUAGCGAGUGCGUAAGGCGGUGGGCGAGGGA [2574-49_18] | 19 |  |
| GGGGUUAUGUAGCGAGUGCGUAAGGCGGUGGGCG [2574-49_10] | 1.9 |  |
| GATGTGAGTGTGTGACGAGGGGGUUAUGUAGCGAGUGCGUAAGGCGGUGGGCGAGGGAUCACAGAGAAGAAACAAGACC [2574-49] |  | Kd ([1]; all U are Nap-dU (5-naphthylmethylcarboxamide-dU), SB17T-0.002 (125 mM NaCl, 5 mM KCl, 5 mM MgCl2), 37 C, ZORBAX capture): 2 nM |
| GGGGUUAUGUAGCGAGUGCGUAAGGCGGUGGGCGAGGG [2574-49_6] | 3.5 |  |
| GGGUUAUGUAGCGAGUGCGUAAGGCGGUGGGCGAGGGA [2574-49_15] | 2.1 |  |
| GGGGUUAUGUAGCGAGUGCGUAAGGCGGUGGG [2574-49_12] | 1.1 |  |
| GGCAGGUUUGGUAUUAACACGUUAAGUCGUGG [2573-20_136] |  | IC50 [2]: 9.7 nM; IC50 ([3]; Bn-dU at 7,8,14,15,22,23,27,30, PE-dU at 9, Nap-dU at 12): 0.5 nM; Kd [4]: 2 nM |
| GGCAGGUUUGGUAUUAACACGUUAAGUCGUGGG [2573-20_14] |  | Kd ([1]; all U are Bn-dU): 2.8 nM |
| GGCAGGUUUGGUAUUAACACGUUAAGUCGUGGGG [2573-20_13] |  | Kd ([1]; all U are Bn-dU): 1.9 nM |
| GGGGUUAUGUAGCGAGUGCGUAAGGCGGUGGGCGA [2574-49_9] | 1.8 |  |
| GGCAGGUUUGGUAUUAACACGUUAAGUCGUGG [2573-20_135] |  | IC50 ([3]; all U are Bn-dU): 0.24 nM |
| GGUUAUGUAGCGAGUGCGUAAGGCGGUGGGCGAGGGA [2574-49_16] | 3.9 |  |
| GGGGUUAUGUAGCGAGUGCGUAAGGCGGUG [2574-49_14] | 0.7 |  |
| GGCAGGUUUGGUAUUAACACGUUAAGUCGUGGGGUC [2573-20_3] |  | Kd ([1]; all U are Bn-dU): 1.5 nM |
| GGCAGGUUUGGUGUGG [2573-20_324 Bn7 to MBn variant] |  | Kd ([1]; G-G-C1-A-G-G1-MBn-Bn-Pe-G-G-Nap-C3-G-Bn-G-G (1=2'-OMe, C3=spacer), 100-fold improvement over parent stated): 1 nM |
| GGGGUUAUGUAGCGAGUGCGUAAGGCGGUGGGCGAG [2574-49_8] | 1.2 |  |
| GGCAGGUUUGGUGUGG [2573-20_324 G-quartet fragment] |  | Kd ([1]; G-G-C1-A-G-G1-Bn-Bn-Pe-G-G-Nap-C3-G-Bn-G-G (1=2'-OMe, C3=spacer), p263 states approximately 200 nM): 270 nM |
| GGGGUUAUGUAGCGAGUGCGUAAGGCGGUGGGCGAGGGA [2574-49_3] | 4.1 |  |
| GGGGUUAUGUAGCGAGUGCGUAAGGCGGUGG [2574-49_13] | 1.1 |  |
| GATGTGAGTGTGTGACGAGUGGGCAGGUUUGGUAUUAACACGUUAAGUCGUGGGGUCGCACAGAGAAGAAACAAGACC [2573-20] |  | Kd ([1]; all U are Bn-dU (5-benzylcarboxamide-dU), SB17T-0.002 (125 mM NaCl, 5 mM KCl, 5 mM MgCl2), 37 C, ZORBAX capture): 3 nM |
| GGGGUUAUGUAGCGAGUGCGUAAGGCGGUGGGCGAGG [2574-49_7] | 2.6 |  |
| GUUAUGUAGCGAGUGCGUAAGGCGGUGGGCGAGGGA [2574-49_17] | 17 |  |
| GGGGUUAUGUAGCGAGUGCGUAAGGCGGUGGGC [2574-49_11] | 1.5 |  |
| GGCAGGUUUGGUAUUAACACGUUAAGUCGUGGGGU [2573-20_12] |  | Kd ([1]; all U are Bn-dU): 1.4 nM |
